Target: FGFR2 on the cell surface of human tumour cell lines (human), P21802
Experiment: cell-based or functional assay

MFM-223, IC50, 72 hr (growth inhibition) [nM]	SNU-16, IC50, 72 hr (growth inhibition) [nM]	Binder
0.278	0.0616	Example 17 (immunoconjugate of GAL-FR22-mIgG2a, coupled to lysine side chains) (antibody, here or on the partner: auristatin linker-toxophore on side chain NH of lysine residues, positions not stated (drug/mAb ratio 8.1 for the antibody)) light: DIQMTQSPSSLSASLGGRVTITCKASQDIKNYIAWYQHKPGKSPRLLIHYTSTLQPGVPSRFSGSGSGRDYSFSISNLEPEDIATYYCLQYDDLYMFGGGTKLDIKRTDAAPTVSIFPPSSEQLTSGGASVVCFLNNFYPKDINVKWKIDGSERQNGVLNSWTDQDSKDSTYSMSSTLTLTKDEYERHNSYTCEATHKTSTSPIVKSFNRNEC heavy: QVQLKQSGPGLVQPSQSLSITCTVSGFSLTSFGVHWVRQSPGKGLEWLGVIWSGGSTDYNADFRSRLSISKDNSKSQIFFKMNSLQPDDTAIYYCANFYYGYDDYVMDYWGQGTSVTVSSAKTTAPSVYPLAPVCGDTTGSSVTLGCLVKGYFPEPVTLTWNSGSLSSGVHTFPAVLQSDLYTLSSSVTVTSSTWPSQSITCNVAHPASSTKVDKKIEPRGPTIKPCPPCKCPAPNLLGGPSVFIFPPKIKDVLMISLSPIVTCVVVDVSEDDPDVQISWFVNNVEVHTAQTQTHREDYNSTLRVVSALPIQHQDWMSGKEFKCKVNNKDLPAPIERTISKPKGSVRAPQVYVLPPPEEEMTKKQVTLTCMVTDFMPEDIYVEWTNNGKTELNYKNTEPVLDSDGSYFMYSKLRVEKKNWVERNSYSCSVVHEGLHNHHTTKSFSRTPGK
0.0788	< 0.03	Example 16 (immunoconjugate of GAL-FR21-mIgG1, coupled to lysine side chains) (antibody, here or on the partner: auristatin linker-toxophore on side chain NH of lysine residues, positions not stated (drug/mAb ratio 8.7 for the antibody)) light: NIVMTQSPKSMSMSVGDRVSITCKASQGVSNDVAWYQKKPGQSPKLLIYSASYRYTGVPDRFTGSGSGTDFTFTISNVQAEDLAVYYCQQHSTTPYTFGGGTKLEIKRTDAAPTVSIFPPSSEQLTSGGASVVCFLNNFYPKDINVKWKIDGSERQNGVLNSWTDQDSKDSTYSMSSTLTLTKDEYERHNSYTCEATHKTSTSPIVKSFNRNEC heavy: QVQLQQPGAEVVKPGASVKMSCKASGYIFTTYNVHWVKQTPGQGLEWIGSIYPDNGDTSYNQNFKGKATLTADKSSSTAYIQLSSLTSEDSAVYYCARGDFAYWGQGTLVTVSSAKTTPPSVYPLAPGSAAQTNSMVTLGCLVKGYFPEPVTVTWNSGSLSSGVHTFPAVLQSDLYTLSSSVTVPSSTWPSETVTCNVAHPASSTKVDKKIVPRDCGCKPCICTVPEVSSVFIFPPKPKDVLTITLTPKVTCVVVDISKDDPEVQFSWFVDDVEVHTAQTQPREEQFNSTFRSVSELPIMHQDWLNGKEFKCRVNSAAFPAPIEKTISKTKGRPKAPQVYTIPPPKEQMAKDKVSLTCMITDFFPEDITVEWQWNGQPAENYKNTQPIMDTDGSYFVYSKLNVQKSNWEAGNTFTCSVLHEGLHNHHTEKSLSHSPGK

Source: patent US20150023989A1, “NEW ANTIBODY DRUG CONJUGATES (ADCS) AND THE USE THEREOF” (SEATTLE GENETICS, INC., priority 2011, published 2015)
